Assays:
[1] = test system: Cc1[nH]c2ccccc2c(=O)c1O; test: purified protein; type: biochemical, Paenarthrobacter nitroguajacolicus; conditions: pH 6.5, air-saturated 0.1 M MTE, 5 mM NaCl, 2 mM EDTA, 20 °C, O2 co-substrate, also measured at pH 10.5
[2] = molecular target: T1, HOD (WT HOD = HOD C69S); (1H)-3-hydroxy-4-oxoquinaldine 2,4-dioxygenase (Paenarthrobacter nitroguajacolicus, UniProt O31266, C69S/H251A); test: X-ray crystal structure, […] Å, crystal soaked with QND; type: binding; conditions: 2 mM QND soak about 2 h, pH 7.0; active site
T1 construct: full-length HOD C69S in pQE30 (His-tag vector, Ni column); ~31 kDa monomer

[3] = molecular target: T2, HOD (WT HOD = HOD C69S); (1H)-3-hydroxy-4-oxoquinaldine 2,4-dioxygenase (Paenarthrobacter nitroguajacolicus, UniProt O31266, C69S); test: anaerobic stopped-flow, QND deprotonation at […] nm, kobs vs [QND] fit; type: binding
T2 construct: full-length HOD C69S in pQE30 (His-tag vector, Ni column); ~31 kDa monomer
T2 sequence (O31266 whole entry C69S): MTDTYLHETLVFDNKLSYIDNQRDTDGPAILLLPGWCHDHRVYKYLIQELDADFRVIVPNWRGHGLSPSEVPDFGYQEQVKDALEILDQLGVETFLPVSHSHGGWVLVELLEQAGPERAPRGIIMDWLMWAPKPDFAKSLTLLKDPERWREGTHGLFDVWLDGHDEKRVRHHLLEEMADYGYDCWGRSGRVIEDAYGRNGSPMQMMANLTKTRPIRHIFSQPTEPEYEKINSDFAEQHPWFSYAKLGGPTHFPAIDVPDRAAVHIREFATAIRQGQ

T1 sequence (O31266 whole entry C69S/H251A): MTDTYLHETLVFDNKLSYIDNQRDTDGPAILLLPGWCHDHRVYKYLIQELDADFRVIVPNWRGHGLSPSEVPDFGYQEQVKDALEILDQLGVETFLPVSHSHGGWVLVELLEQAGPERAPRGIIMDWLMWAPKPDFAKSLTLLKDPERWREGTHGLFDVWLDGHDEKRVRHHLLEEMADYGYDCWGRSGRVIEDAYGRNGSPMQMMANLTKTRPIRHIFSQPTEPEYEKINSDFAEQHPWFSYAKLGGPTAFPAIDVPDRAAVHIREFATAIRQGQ

Molecule | Km [1] [µM] | kcat [1] [s⁻¹] | X-ray crystal structure, 1.95 Å, crystal soaked with QND [2] | Kd [3] [µM]
HOD (WT HOD = HOD C69S); (1H)-3-hydroxy-4-oxoquinaldine 2,4-dioxygenase (Paenarthrobacter nitroguajacolicus; C69S) | 3.2 ± 0.1 | 16.3 ± 0.1 | – | –
HOD (WT HOD = HOD C69S); (1H)-3-hydroxy-4-oxoquinaldine 2,4-dioxygenase (Paenarthrobacter nitroguajacolicus; C69S/D126A) | 20.9 ± 0.6 | 0.19 ± 0.01 | – | –
Cc1[nH]c2ccccc2c(=O)c1O [QND, (1H)-3-hydroxy-4-oxoquinaldine] | – | – | we solved the x-ray structure of this variant in complex with the QND substrate | 214 ± 9
HOD (WT HOD = HOD C69S); (1H)-3-hydroxy-4-oxoquinaldine 2,4-dioxygenase (Paenarthrobacter nitroguajacolicus; C69S/H251A) | 58.9 ± 14.6 | 0.0006 ± 0.0001 | – | –
